The values below come from FireProtDB (doi:10.1016/0167-4838(93)90045-s).

The conditions of this data set: Carica papaya, Thermal, DSC, glycine 0.05M, reversible: No.

Chain of Chymopapain wild type, P14080 (P14080 whole entry): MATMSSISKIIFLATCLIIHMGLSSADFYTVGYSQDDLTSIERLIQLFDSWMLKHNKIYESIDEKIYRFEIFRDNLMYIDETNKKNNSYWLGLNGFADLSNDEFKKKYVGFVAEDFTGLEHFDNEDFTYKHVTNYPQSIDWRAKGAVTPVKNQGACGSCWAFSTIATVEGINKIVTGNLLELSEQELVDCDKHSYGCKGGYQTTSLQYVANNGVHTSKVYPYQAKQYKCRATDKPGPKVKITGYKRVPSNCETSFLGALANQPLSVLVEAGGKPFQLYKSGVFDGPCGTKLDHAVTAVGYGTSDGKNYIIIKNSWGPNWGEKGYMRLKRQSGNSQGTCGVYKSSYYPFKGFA

Take Chymopapain wild type, P14080: the Tm is, setting by setting: (pH 1.2) 43 °C; (pH 1.91) 56.9 °C; (pH 2.2) 62 °C; (pH 2.35) 67.9 °C; (pH 2.56) 75.2 °C; (pH 3.18) 81.1 °C. For the same substance, the Tm (pH 3.45) turned out to be 83.7 °C. The “unfolding enthalpy (calorimetric)” value by setting is: (pH 1.2) 438 kJ/mol; (pH 1.91) 578 kJ/mol; (pH 2.2) 602 kJ/mol; (pH 2.35) 674 kJ/mol; (pH 2.56) 728 kJ/mol; (pH 3.18) 809 kJ/mol. The “unfolding enthalpy (calorimetric)” value (pH 3.45) was determined as 831 kJ/mol.

A word on the Tm: it is the temperature at which the thermal transition is half complete.
